{"source": "patent US20080181886A1", "about": "“Polypeptides That Bind Baff And/Or April” (Genentech, Inc., priority 2004, published 2008)", "key": {"[1]": {"biological_target": "TRX-APRIL (mouse) (UniProt Q9D777)", "sequence (Q9D777 104-241)": "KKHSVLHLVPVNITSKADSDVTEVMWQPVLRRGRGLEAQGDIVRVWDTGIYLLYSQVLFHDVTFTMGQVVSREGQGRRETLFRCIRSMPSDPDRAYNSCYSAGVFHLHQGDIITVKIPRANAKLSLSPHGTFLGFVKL", "assay": "competitive SPR; elute 2"}, "[2]": {"biological_target": "TRX-APRIL (mouse) (UniProt Q9D777)", "assay": "competitive SPR; elute 1"}, "[3]": {"biological_target": "human BAFF (UniProt Q9Y275)", "sequence (Q9Y275 82-285)": "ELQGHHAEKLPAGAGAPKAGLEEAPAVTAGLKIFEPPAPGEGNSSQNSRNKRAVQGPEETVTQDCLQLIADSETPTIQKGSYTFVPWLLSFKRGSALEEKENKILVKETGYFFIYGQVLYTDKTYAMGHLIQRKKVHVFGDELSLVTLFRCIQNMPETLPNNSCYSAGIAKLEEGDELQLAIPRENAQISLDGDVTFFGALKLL", "assay": "competitive SPR; elute 1; interaction observed, curve not fitted adequately"}, "[4]": {"biological_target": "human BAFF (UniProt Q9Y275)", "assay": "competitive SPR; elute 2; interaction observed, curve not fitted adequately"}, "[5]": {"biological_target": "human BAFF (UniProt Q9Y275)", "assay": "competitive SPR; elute 2"}, "[6]": {"biological_target": "human BAFF (UniProt Q9Y275)", "assay": "competitive SPR; elute 1"}}}
{"substance": "TACI_d1 (first CRD of TACI, residues 32-67)", "values": [{"measurement": "IC50", "setting": "[1]", "result": 1000, "unit": "nM"}, {"measurement": "IC50", "setting": "[2]", "result": 3000, "unit": "nM"}, {"measurement": "IC50", "setting": "[3]", "result": "> 100", "unit": "nM"}, {"measurement": "IC50", "setting": "[4]", "result": "> 100", "unit": "nM"}]}
{"substance": "hTACI CRD1 LS (human TACI CRD1 R32-R67 with NHQSQRT replaced by GQHPKQ of CRD2)", "values": [{"measurement": "IC50", "setting": "[1]", "result": 129, "unit": "nM"}, {"measurement": "IC50", "setting": "[5]", "result": 23, "unit": "nM"}, {"measurement": "IC50", "setting": "[2]", "result": 12, "unit": "nM"}, {"measurement": "IC50", "setting": "[6]", "result": 6, "unit": "nM"}]}
